Laboratory results as given in patent publication US20200147244A1.

Tests used:
[1] = biological target: recombinant PSMA protein (human) (UniProt Q04609); assay: ELISA on PSMA
[2] = biological target: His-PSMA (Sino Biological) (human) (UniProt Q04609); assay: ELISA, PSMA immobilized by its His tag, PCC titrated in solution
[3] = biological target: PSMA-Myc-Flag (Origene) (human) (UniProt Q04609); assay: ELISA, PSMA immobilized by its Myc-Flag tag, PCC titrated in solution
PSMA-Myc-Flag (Origene) (human), sequence (Q04609 whole entry): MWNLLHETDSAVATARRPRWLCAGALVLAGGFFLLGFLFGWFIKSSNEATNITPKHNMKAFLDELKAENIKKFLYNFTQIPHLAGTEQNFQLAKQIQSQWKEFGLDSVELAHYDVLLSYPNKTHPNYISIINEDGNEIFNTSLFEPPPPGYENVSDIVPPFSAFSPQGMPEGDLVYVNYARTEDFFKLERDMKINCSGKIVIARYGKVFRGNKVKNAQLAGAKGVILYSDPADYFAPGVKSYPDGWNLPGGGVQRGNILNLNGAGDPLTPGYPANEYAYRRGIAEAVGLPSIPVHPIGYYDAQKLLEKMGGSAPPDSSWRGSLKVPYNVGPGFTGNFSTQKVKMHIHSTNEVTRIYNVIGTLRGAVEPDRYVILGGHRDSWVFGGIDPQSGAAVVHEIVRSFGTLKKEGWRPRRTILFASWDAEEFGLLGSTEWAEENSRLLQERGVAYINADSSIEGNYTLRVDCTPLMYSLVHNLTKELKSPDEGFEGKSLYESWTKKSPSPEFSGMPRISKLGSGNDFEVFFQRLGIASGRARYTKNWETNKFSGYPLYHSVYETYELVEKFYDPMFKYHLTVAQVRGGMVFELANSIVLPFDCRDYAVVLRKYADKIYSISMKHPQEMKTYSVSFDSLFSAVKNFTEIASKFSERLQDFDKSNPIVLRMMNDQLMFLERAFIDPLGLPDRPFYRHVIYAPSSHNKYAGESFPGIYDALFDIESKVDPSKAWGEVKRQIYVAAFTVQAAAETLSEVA

recombinant PSMA protein (human), sequence (Q04609 44-750 limits assumed): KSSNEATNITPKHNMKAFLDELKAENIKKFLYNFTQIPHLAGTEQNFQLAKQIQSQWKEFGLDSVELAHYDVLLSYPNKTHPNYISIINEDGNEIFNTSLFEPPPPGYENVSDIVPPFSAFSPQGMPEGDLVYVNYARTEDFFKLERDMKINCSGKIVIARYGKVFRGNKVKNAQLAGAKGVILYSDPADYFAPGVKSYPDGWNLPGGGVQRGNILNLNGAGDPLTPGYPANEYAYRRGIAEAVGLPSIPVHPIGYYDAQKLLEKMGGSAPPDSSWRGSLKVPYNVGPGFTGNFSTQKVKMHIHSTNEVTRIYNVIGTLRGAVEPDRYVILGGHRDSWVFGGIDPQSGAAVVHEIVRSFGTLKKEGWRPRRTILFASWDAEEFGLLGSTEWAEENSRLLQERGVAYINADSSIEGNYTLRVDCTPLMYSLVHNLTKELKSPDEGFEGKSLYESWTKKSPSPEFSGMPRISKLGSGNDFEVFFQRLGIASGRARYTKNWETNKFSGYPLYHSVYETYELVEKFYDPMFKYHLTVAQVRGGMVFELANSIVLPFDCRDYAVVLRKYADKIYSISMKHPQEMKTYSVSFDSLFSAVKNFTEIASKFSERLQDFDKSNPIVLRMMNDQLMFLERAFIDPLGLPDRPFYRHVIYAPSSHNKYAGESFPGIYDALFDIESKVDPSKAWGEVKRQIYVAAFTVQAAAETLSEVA
His-PSMA (Sino Biological) (human), sequence (Q04609 44-750 limits assumed): as above

EC50 [1]	EC50 [2]	EC50 [3]	Substance
5.58 µM			hnwlG (SEQ ID NO:19) (peptide)
	0.872 µM	0.662 µM	hreww (SEQ ID NO:10) (peptide)
0.0086 µM			lfkhh (SEQ ID NO:16) (peptide)
